Assay results reported in the supplement of paper PMC11246515.
± gives the standard deviation of the averaged measurements.

Assay: total protein half-life in vivo (active degradation + dilution); higher = more stable protein
[1] = E. coli NCM3722 delta-clpP, growth: N-lim chemostat, doubling time 6 h
[2] = wild type E. coli NCM3722, growth: C-lim chemostat, doubling time 3 h
[3] = E. coli NCM3722 delta-clpP delta-lon delta-hslV, growth: N-lim chemostat, doubling time 6 h
[4] = E. coli NCM3722 delta-hslV, growth: N-lim chemostat, doubling time 6 h
[5] = E. coli NCM3722 delta-smpB, growth: N-lim chemostat, doubling time 6 h
[6] = wild type E. coli NCM3722, growth: C-lim chemostat, doubling time 12 h
[7] = wild type E. coli NCM3722, growth: N-lim chemostat, doubling time 6 h
[8] = wild type E. coli NCM3722, growth: N-lim chemostat, doubling time 12 h
[9] = wild type E. coli NCM3722, growth: P-lim chemostat, doubling time 6 h
[10] = wild type E. coli NCM3722, growth: P-lim chemostat, doubling time 12 h
[11] = E. coli NCM3722 delta-lon, growth: N-lim chemostat, doubling time 6 h
[12] = wild type E. coli NCM3722, growth: C-lim chemostat, doubling time 6 h

Sequence | total protein half-life in vivo [1] [h] | total protein half-life in vivo [2] [h] | total protein half-life in vivo [3] [h] | total protein half-life in vivo [4] [h] | total protein half-life in vivo [5] [h] | total protein half-life in vivo [6] [h] | total protein half-life in vivo [7] [h] | total protein half-life in vivo [8] [h] | total protein half-life in vivo [9] [h] | total protein half-life in vivo [10] [h] | total protein half-life in vivo [11] [h] | total protein half-life in vivo [12] [h]
MRLVQLSRHSIAFPSPEGALREPNGLLALGGDLSPARLLMAYQRGIFPWFSPGDPILWWSPDPRAVLWPESLHISRSMKRFHKRSPYRVTMNYAFGQVIEGCASDREEGTWITRGVVEAYHRLHELGHAHSIEVWREDELVGGMYGVAQGTLFCGESMFSRMENASKTALLVFCEEFIGHGGKLIDCQVLNDHTASLGACEIPRRDYLNYLNQMRLGRLPNNFWVPRCLFSPQE [P0A8P1] | 4.09 ± 0.21 | 0.705 ± 0.05 |  |  |  |  |  |  |  |  |  | 
MRKITQAISAVCLLFALNSSAVALASSPSPLNPGTNVARLAEQAPIHWVSVAQIENSLAGRPPMAVGFDIDDTVLFSSPGFWRGKKTFSPESEDYLKNPVFWEKMNNGWDEFSIPKEVARQLIDMHVRRGDAIFFVTGRSPTKTETVSKTLADNFHIPATNMNPVIFAGDKPGQNTKSQWLQDKNIRIFYGDSDNDITAARDVGARGIRILRASNSTYKPLPQAGAFGEEVIVNSEY [P0AE22] |  | 3.637 ± 0.033 | 6.66 ± 1.4 | 6.31 ± 0.14 | 5.83 ± 0.2 | 11.7 ± 2.4 | 5.79 ± 0.22 | > 16 | 6.42 ± 0.61 | 13.2 ± 0.27 |  | 
MNIKGKALLAGCIALAFSNMALAEDIKVAVVGAMSGPVAQYGDQEFTGAEQAVADINAKGGIKGNKLQIVKYDDACDPKQAVAVANKVVNDGIKYVIGHLCSSSTQPASDIYEDEGILMITPAATAPELTARGYQLILRTTGLDSDQGPTAAKYILEKVKPQRIAIVHDKQQYGEGLARAVQDGLKKGNANVVFFDGITAGEKDFSTLVARLKKENIDFVYYGGYHPEMGQILRQARAAGLKTQFMGPEGVANVSLSNIAGESAEGLLVTKPKNYDQVPANKPIVDAIKAKKQDPSGAFVWTTYAALQSLQAGLNQSDDPAEIAKYLKANSVDTVMGPLTWDEKGDLKGFEFGVFDWHANGTATDAK [P0AD96] | 5.81 ± 0.64 | 3.27 ± 0.18 | 6.22 ± 0.16 | 6.127 ± 0.057 | 5.96 ± 0.19 | 11.46 ± 0.034 | 6.02 ± 0.32 | 12.23 ± 0.02 | 5.67 ± 0.064 | 13 ± 0.45 | 6.35 ± 0.39 | 6.24 ± 0.17
MAILGLGTDIVEIARIEAVIARSGDRLARRVLSDNEWAIWKTHHQPVRFLAKRFAVKEAAAKAFGTGIRNGLAFNQFEVFNDELGKPRLRLWGEALKLAEKLGVANMHVTLADERHYACATVIIES |  | 2.85 ± 0.081 | 5.28 ± 0.087 |  | 5.093 ± 0.018 | 12.9 ± 2.6 | 5.35 ± 0.61 | 11.2 ± 1.1 | 5.72 ± 0.41 | 11.5 ± 0.7 | 5.71 ± 0.46 | 5.87 ± 0.26
MTTPTFDTIEAQASYGIGLQVGQQLSESGLEGLLPEALVAGIADALEGKHPAVPVDVVHRALREIHERADAVRRQRFQAMAAEGVKYLEENAKKEGVNSTESGLQFRVINQGEGAIPARTDRVRVHYTGKLIDGTVFDSSVARGEPAEFPVNGVIPGWIEALTLMPVGSKWELTIPQELAYGERGAGASIPPFSTLVFEVELLEIL [P0A9L3] | 4.54 ± 0.58 | 3.06 ± 0.2 | 4.93 ± 0.29 | 3.72 ± 0.16 | 3.45 ± 0.19 | 10.4 ± 0.65 | 3.59 ± 0.1 | 5.3 ± 0.15 | 5.591 ± 0.04 | 11 ± 0.86 | 5 ± 0.44 | 5.67 ± 0.37
MQYKDENGVNEPSRRRLLKVIGALALAGSCPVAHAQKTQSAPGTLSPDARNEKQPFYGEHQAGILTPQQAAMMLVAFDVLASDKADLERLFRLLTQRFAFLTQGGAAPETPNPRLPPLDSGILGGYIAPDNLTITLSVGHSLFDERFGLAPQMPKKLQKMTRFPNDSLDAALCHGDVLLQICANTQDTVIHALRDIIKHTPDLLSVRWKREGFISDHAARSKGKETPINLLGFKDGTANPDSQNDKLMQKVVWVTADQQEPAWTIGGSYQAVRLIQFRVEFWDRTPLKEQQTIFGRDKQTGAPLGMQHEHDVPDYASDPEGKVIALDSHIRLANPRTAESESSLMLRRGYSYSLGVTNSGQLDMGLLFVCYQHDLEKGFLTVQKRLNGEALEEYVKPIGGGYFFALPGVKDANDYFGSALLRV | 5.58 | 2.17 ± 0.16 |  |  | 5.85 | 7.71 |  |  |  |  |  | 4.4
